Experimental data reported in article PMC11969024, “Development of chemokine network inhibitors using combinatorial saturation mutagenesis” (Communications Biology, 2025).

B1: peptide HD2 (from tick evasin EVA4) / CCL17 (biotinylated, synthetic) (parent)
chain 1: EEDDYTAYAPLTCYFT
chain 2: ARGTNVGRECCLEYFKGAIPLRKLKTWYQTSEDCSRDAIVFVTVQGRAICSDPNNKRVKNAVKYLQSLERS
B2: peptide HD2 (from tick evasin EVA4) / CCL1 (biotinylated, synthetic) (parent)
chain 1: EEDDYTAYAPLTCYFT
chain 2: KSMQVPFSRCCFSFAEQEIPLRAILCYRNTSSICSNEGLIFKLKRGKEACALDTVGWVQRHRKMLRHCPSKRK
B3: peptide HD2 (from tick evasin EVA4) / CCL18 (biotinylated, synthetic) (parent)
chain 1: EEDDYTAYAPLTCYFT
chain 2: AQVGTNKELCCLVYTSWQIPQKFIVDYSETSPQCPKPGVILLTKRGRQICADPNKKWVQKYISDLKLNA
B4: peptide HD2 (from tick evasin EVA4) / CCL4 (biotinylated, synthetic) (parent)
chain 1: EEDDYTAYAPLTCYFT
chain 2: APMGSDPPTACCFSYTARKLPRNFVVDYYETSSLCSQPAVVFQTKRSKQVCADPSESWVQEYVYDLELN
B5: peptide HD2 (from tick evasin EVA4) / CCL8 (biotinylated, synthetic) (parent)
chain 1: EEDDYTAYAPLTCYFT
chain 2: QPDSVSIPITCCFNVINRKIPIQRLESYTRITNIQCPKEAVIFKTKRGKEVCADPKERWVRDSMKHLDQIFQNLKP
B6: peptide HD2 (from tick evasin EVA4) / CXCL14 (biotinylated, synthetic) (parent)
chain 1: EEDDYTAYAPLTCYFT
chain 2: SKCKCSRKGPKIRYSDVKKLEMKPKYPHCEEKMVIITTKSVSRYRGQEHCLHPKLQSTKRFIKWYNAWNEKRRVYEE

Variants of: B1
Conditions: with CCL17 (biotinylated, synthetic); scale: log2

Variant	enrichment
chain 1 A9C	-10.2
chain 1 A9I	-10.1
chain 1 A9P	-7.91
chain 1 A9K	-6.73
chain 1 A9D	-8.33
chain 1 D3C	-10
chain 1 A7C	-9.94
chain 1 C13A	-10.7
chain 1 C13D	-9.26
chain 1 C13K	-9.23
chain 1 C13H	-8.75
chain 1 C13W	-9.75
chain 1 C13G	-10.5

Variants of: B2
Conditions: with CCL1 (biotinylated, synthetic); scale: log2

Variant	enrichment
chain 1 L11P	-7.33
chain 1 L11N	-7.68
chain 1 L11E	-7.4
chain 1 P10T	-7.09
chain 1 P10C	-8.95
chain 1 P10K	-6.19
chain 1 P10F	-8.64
chain 1 P10Y	-7.79
chain 1 P10N	-7.25
chain 1 P10R	-8.31
chain 1 P10H	-7.18
chain 1 P10S	-8.42
chain 1 P10I	-7.67
chain 1 D4Q	-5.71
chain 1 D4R	-6.32
chain 1 D4T	-7.11
chain 1 D4C	-8.47
chain 1 D4K	-6.11
chain 1 D4G	-5.45
chain 1 D4V	-9.08
chain 1 D3K	-4.59
chain 1 D3R	-6.68

Variant	enrichment
chain 1 D3C	-9.13
chain 1 A7C	-9.07
chain 1 Y5R	-6.28
chain 1 Y5Q	-4.59
chain 1 Y5A	-6.3
chain 1 Y5T	-6.9
chain 1 Y5K	-4.83
chain 1 Y5E	-2.71
chain 1 Y5S	-8.33
chain 1 Y5H	-6.55
chain 1 Y5C	-8.4
chain 1 Y5M	-6.87
chain 1 Y5P	-5.96
chain 1 Y5G	-6.34
chain 1 Y5V	-8.5
chain 1 Y5D	-6.28
chain 1 E1C	-8.98
chain 1 Y8R	-7.41
chain 1 Y8K	-5.3
chain 1 Y8H	-6.8
chain 1 Y8Q	-5.59
chain 1 Y8T	-7.71

Variant	enrichment
chain 1 Y8N	-7.36
chain 1 Y8G	-7.94
chain 1 Y8C	-8.91
chain 1 Y8S	-8.97
chain 1 Y8E	-5.41
chain 1 Y14N	-6.13
chain 1 Y14G	-9.73
chain 1 Y14E	-7.99
chain 1 Y14D	-6.76
chain 1 Y14P	-8.08
chain 1 Y14K	-7.4
chain 1 C13L	-10.5
chain 1 C13K	-8.35
chain 1 C13H	-7.88
chain 1 C13I	-7.4
chain 1 E2K	-4.38
chain 1 E2C	-9.24
chain 1 A9D	-7.46
chain 1 A9K	-5.86
chain 1 A9C	-9.32
chain 1 A9H	-7.44

Variants of: B3
Conditions: with CCL18 (biotinylated, synthetic); scale: log2

Variant	enrichment
chain 1 T16C	-7.88
chain 1 Y5K	-5.8
chain 1 P10M	-8.7
chain 1 P10K	-7.16
chain 1 P10S	-9.39
chain 1 P10T	-8.06
chain 1 P10C	-9.92
chain 1 P10I	-8.64
chain 1 P10H	-8.15
chain 1 P10E	-8.1
chain 1 P10R	-9.28
chain 1 C13H	-8.85
chain 1 C13G	-10.6
chain 1 C13K	-9.32
chain 1 C13S	-9.93
chain 1 C13E	-10.1
chain 1 C13D	-9.35
chain 1 C13A	-10.8
chain 1 Y8E	-6.38
chain 1 Y8K	-6.27
chain 1 Y8R	-8.38
chain 1 D3C	-10.1
chain 1 Y14P	-9.05
chain 1 A7C	-10
chain 1 A9D	-8.43
chain 1 E1C	-9.95
chain 1 D4C	-9.44
chain 1 T6C	-11.3

Variants of: B4
Conditions: with CCL4 (biotinylated, synthetic); scale: log2

Variant	enrichment
chain 1 Y5Q	-4.93
chain 1 Y5G	-6.68
chain 1 Y5A	-6.64
chain 1 Y5N	-7.28
chain 1 Y5K	-5.17
chain 1 T6C	-10.7
chain 1 Y8M	-8.06
chain 1 Y8R	-7.75
chain 1 Y8Q	-5.93
chain 1 Y8C	-9.25
chain 1 Y8G	-8.28
chain 1 Y8K	-5.64
chain 1 E1C	-9.32
chain 1 E2C	-9.58
chain 1 D3K	-4.93
chain 1 D3C	-9.47
chain 1 D4C	-8.81
chain 1 P10I	-8.01
chain 1 P10R	-8.65
chain 1 P10K	-6.53
chain 1 P10M	-8.07
chain 1 P10H	-7.52
chain 1 P10N	-7.59
chain 1 C13H	-8.22
chain 1 C13R	-10.1
chain 1 A9D	-7.8
chain 1 A9C	-9.66

Variants of: B5
Conditions: with CCL8 (biotinylated, synthetic); scale: log2

Variant	enrichment
chain 1 A9P	-7.32
chain 1 C13P	-9.12
chain 1 Y8P	-7.38
chain 1 Y8G	-8.23
chain 1 Y8K	-5.59
chain 1 Y8E	-5.7
chain 1 Y8Q	-5.88
chain 1 L11P	-7.62
chain 1 Y5R	-6.57
chain 1 Y5K	-5.12
chain 1 Y5Q	-4.88
chain 1 P10K	-6.48
chain 1 P10V	-9.9
chain 1 P10M	-8.02
chain 1 P10H	-7.47
chain 1 P10I	-7.96
chain 1 P10F	-8.93
chain 1 E2C	-9.53

Variants of: B6
Conditions: with CXCL14 (biotinylated, synthetic); scale: log2

Variant	enrichment
chain 1 C13M	-7.78
chain 1 C13F	-6.89
chain 1 C13Q	-7.64
chain 1 C13L	-9.57
chain 1 C13I	-6.44
chain 1 C13R	-8.81
chain 1 C13H	-6.91
chain 1 C13Y	-7.01
chain 1 C13K	-7.38
chain 1 L11K	-5.25
chain 1 L11P	-6.36
chain 1 L11G	-8.51
chain 1 L11E	-6.43
chain 1 E1M	-5.07
chain 1 E1A	-5.59
chain 1 E1C	-8.01
